Reference: the supplement of paper PMC10567573
± gives the standard deviation.

Assay: protein stability index of a GFP-peptide fusion (GPS, HEK-293T) (PSI 1-6); higher = more stable
[1] = treatment: DMSO, c terminus: a fixed tail appended
[2] = treatment: MLN4924 1 uM, 8 h, c terminus: a fixed tail appended
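Also: 24-mer peptide tiles fused after GFP, lentivirally expressed, FACS-sorted into six equal bins by GFP/DsRed ratio, decoded by Illumina sequencing, PSI is the read-weighted mean bin number.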

Sequence	protein stability index [1]	protein stability index [2]	protein stability index (treatment: DMSO, c terminus: native)	protein stability index (treatment: MLN4924 1 uM, 8 h, c terminus: native)
GTLGSCSSSSECLEDSTMGSVADT [PLK2]	5.36 ± 0.11	5.28 ± 0.15	–	–
DEEKKARRGRSPKGEFKDEEETVT [CLINT1]	5.43 ± 0.28	5.57 ± 0.14	–	–
KAVLENALRNFACLTTGDVIAINY [UFD1]	2.94 ± 1.7	2.3 ± 1	–	–
YLDKAPPPGLPAETIKDLMRQFLR [CDK4]	4.45 ± 0.2	4.23 ± 0.39	–	–
ASKCKGAAVKLADFGLAIEVQGDQ [CAMK2B]	3.5 ± 0.28	3.6 ± 0.37	–	–
LGIHEDSTNRRRLSELLRYHTSQS [HSP90AB1]	3.5 ± 0.22	3.71 ± 0.24	–	–
MFPLHLAALNAHSDCCRKLLSSGF [ANKRD44]	2.57 ± 0.4	2.15 ± 0.31	–	–
ALHIIVQYNRPISDFLTLHSIIIS [FEM1B]	3.03 ± 1	2.37 ± 0.56	–	–
AQAHRIHIDPEIQDGSPTTSRRPS [PDLIM4]	5.31 ± 0.43	5.34 ± 0.22	–	–
ICTRKPEEIRGGGLLKYCSLLVHG [TENT5D]	2.24 ± 0.43	2.03 ± 0.3	–	–
LLPVQVVTEHPLELIRVEVEILDL [PCDHGC5]	3.02 ± 0.66	3.05 ± 0.85	–	–
APDFVGDILWEHLEQMIKENQEKT [ETS2]	4.44 ± 0.13	4.58 ± 0.14	–	–
VCEVQVHGGSLLGKKYNWSCDDLM [GFOD1]	2.58 ± 0.16	2.35 ± 0.32	–	–
LRNITNSQAPDGRRKSEAGSGAAS [CDC25B]	4.89 ± 0.24	5.1 ± 0.16	–	–
IHKASATIIEPAGESDNPLRFTSG [INTS4]	4.03 ± 0.33	4.15 ± 0.25	–	–
PMMEHEMGGHHPGADYPVDGLPDL [CTNNB1]	5.2 ± 0.23	5.24 ± 0.13	–	–
QIEGLNEELAYLKKNHEEEMKEFS [KRT15]	5.25 ± 0.33	5.3 ± 0.19	–	–
RLLELMNQHDTEMKYYIVHLKRHF [DYRK1B]	2.35 ± 0.22	2.54 ± 0.48	–	–
DLVAMQWADAAGEAVPEGPDGGGP [ZSWIM9]	4.99 ± 0.33	5.17 ± 0.12	–	–
EAYIAKQKRLKSKLLDHDNVKYLK [GDAP1]	3.15 ± 0.32	3.45 ± 0.55	–	–
DRVQVERDGLAEDLAALKQRLEEE [PRPH]	5.49 ± 0.16	5.17 ± 0.25	–	–
TSQKIAARAFAQRYLADLLPSVFG [RSPH3]	2.12 ± 0.56	2.09 ± 0.18	–	–

Sequence	protein stability index [1]	protein stability index [2]	protein stability index (treatment: DMSO, c terminus: native)	protein stability index (treatment: MLN4924 1 uM, 8 h, c terminus: native)
YQELLNVKMALDIEIATYRKLLEG [PRPH]	2.22 ± 0.22	2.43 ± 0.081	–	–
SGRTQAQTRRASALIDRPAPYFER [EPB41L3]	3.5 ± 0.56	3.72 ± 0.36	–	–
CKLTCQAQALGYYYVLEPRVVDGT [ADAMTS4]	2.86 ± 2	2.77 ± 1.1	–	–
HCRKCGKAVCGKCSSKRSSIPLMG [WDFY2]	3.94 ± 0.21	3.93 ± 0.17	–	–
FRTDPEAKVKLVFVEDQAVVETVF [ZSWIM9]	2.46 ± 0.38	2.5 ± 0.32	–	–
NVDDPTGAHSNAPITAHAEVEVVE [CSNK1G1]	5.35 ± 0.61	5.39 ± 0.47	–	–
GWSLGRWTHDGIDINNNFPDLNTL [CPXM2]	2.01 ± 0.085	2.34 ± 0.091	–	–
EFDSEHNLTSNEGHSLKNLEHRLN [RASAL3]	4.82 ± 0.49	4.67 ± 0.49	–	–
PAIVEAGGMQALGLHLTDPSQRLV [CTNNB1]	3.79 ± 0.23	3.83 ± 0.15	–	–
NEIESRHRELLRLESRIRDVHELF [STX11]	3.54 ± 0.21	3.65 ± 0.22	–	–
SRNEFDRTIAETEAAYLKILESSQ [SSNA1]	3.95 ± 0.22	4.04 ± 0.34	–	–
SVYAWGGGLGTPLRLPMLNTEVVQ [NEK8]	2.63 ± 0.39	2.69 ± 0.32	–	–
QGTARTLSPVLESPRDLQFSEIRE [TNXB]	4.64 ± 0.16	4.78 ± 0.18	–	–
VIVWDGDTTRQVQRISCFQSTVKC [WDR41]	2.31 ± 0.31	2.01 ± 0.11	–	–
LEAAEALLTLRNSAQAPPDSISLH [DMRTC1]	4.42 ± 0.18	4.27 ± 0.25	–	–
LWENTRFTDCSFFVRGQEFKAHKS [SPOPL]	2.74 ± 0.32	2.98 ± 0.25	–	–
MSSVQQQPPPPRRVTNVGSLLLTP [WASL]	3.7 ± 0.28	3.75 ± 0.3	–	–
LKGARLTVEQGCQILDSLSYMRNE [FBXO39]	2.68 ± 0.35	2.85 ± 0.38	–	–
RLFTVNDVKVGGSKYGIINLQSLK [DCAF4]	2.14 ± 0.14	2.27 ± 0.37	–	–
LLRHQRIHTGERPYKCPECGKSFS [ZNF263]	2.71 ± 0.47	3.58 ± 0.47	–	–
KAKKNKDKYVGVSSDSVGGFRYSE [CLINT1]	4.53 ± 0.19	4.58 ± 0.24	–	–
GRYRDARMNDLHYLNLDTWEWNEL [KLHDC2]	2.86 ± 0.24	2.88 ± 0.25	–	–

Sequence	protein stability index [1]	protein stability index [2]	protein stability index (treatment: DMSO, c terminus: native)	protein stability index (treatment: MLN4924 1 uM, 8 h, c terminus: native)
GASLRLAVEDGLQQFKQYSRHVTT [M1AP]	3.06 ± 0.15	3.19 ± 0.43	–	–
VPRAGPLTVNTEAQQLLREFEEAT [FOXJ1]	4.96 ± 0.19	4.9 ± 0.26	–	–
GNSSGSDVTSLSSQLPDTPNSMVP [ISL2]	5.13 ± 0.2	4.9 ± 0.32	–	–
VGSVALTALVTVSSEEFEDKWFRK [C8orf76]	2.26 ± 0.19	2.35 ± 0.21	–	–
SGREHNFTRPNEKGEYEVAEGIGS [BTBD10]	5.11 ± 0.25	4.99 ± 0.33	–	–
DDGYSTKDSYSSRDYPSSRDTRDY [RBMX]	4.9 ± 0.25	4.77 ± 0.081	–	–
GSVPLPESTRELGELLGEARYYLV [KCTD13]	2.11 ± 0.36	2.35 ± 0.32	–	–
GEVVTESQKEQRSELDKSSAHSY [PRPH]	–	–	5.67 ± 0.24	5.77 ± 0.1
RDNPMCLKCDLQERLLCPSLLAGT [M1AP]	2.28 ± 0.14	2.16 ± 0.23	–	–
SSTPDSTEGGNDDSDFRELHTARE [RTN2]	5.41 ± 0.29	5.53 ± 0.21	–	–
APYFERSSSKRYTMSRSLDGASVN [EPB41L3]	3.3 ± 0.33	3.44 ± 0.7	–	–
RMKEPSSPPPAPTSSTFGLQDGNL [CHCHD6]	4.63 ± 0.26	4.53 ± 0.35	–	–
FELQRLEFDLSPLNLDIGQVYKET [AASDHPPT]	2.42 ± 0.092	2.29 ± 0.62	–	–
TQPPDESCSQNLLITQQIIPVLYC [P2RY14]	2.28 ± 0.25	2.23 ± 0.22	–	–
GALEALELSPPLSPASHVDVDLTI [FOXJ1]	3.17 ± 0.23	3.43 ± 0.36	–	–
CPECYPDNPANRSLVLPWSFPLEW [TOR1AIP2]	2.5 ± 0.28	2.77 ± 0.24	–	–
HNIPLETIIPILQHLKYKEHPEAL [INTS3]	2.51 ± 0.31	2.55 ± 0.38	–	–
EWELLDPTQKALYNDVMQENYETV [ZNF75A]	4.77 ± 0.086	4.98 ± 0.19	–	–
DMTFEEEAQLLQLKVKCLNNLAAS [FKBP8]	3.42 ± 0.27	3.54 ± 0.46	–	–
QKNFELAFTMAENLANCERLIEVE [SMTNL2]	2.45 ± 0.2	2.88 ± 0.67	–	–
EVVNRKFGNRIKVLRSRIRFIHLV [POMT2]	2.56 ± 0.22	2.43 ± 0.43	–	–
